In publication PMC11472046:

How the values were obtained:
H3K9me3 mononucleosome = assay: native gel or EMSA; varying concentrations of Chp2 with 50 nM mononucleosomes; 20 mM HEPES pH 7.5, 4 mM Tris, 80 mM KCl, 0.1% Igepal CA-630, 0.2 mM EDTA, 2 mM DTT, 10% glycerol; 4°C, 30 min; unbound nucleosome band quantified; apparent affinity (K1/2)
[1] = target: H3K9 methylated (H3K9me) histones in chromatin (S. pombe (endogenous in S. pombe cells)); assay: live-cell single-molecule time-lapse imaging; as a4, but PAmCherry-Chp2-low in swi6Δ cells
[2] = target: H3K9 methylated (H3K9me) histones in chromatin (S. pombe (endogenous in S. pombe cells)); assay: live-cell single-molecule tracking (NOBIAS mobility states, Bayesian Synthetic Likelihood rate inference); as a2, but PAmCherry-Chp2 expressed from the nmt41 promoter (5x higher level)
[3] = target: H3K9 methylated (H3K9me) histones in chromatin (S. pombe (endogenous in S. pombe cells)); assay: live-cell single-molecule time-lapse imaging; residence times of stationary PAmCherry-tagged molecules in living WT S. pombe; 200-ms integration time with different dark delay times; kdiss from a linear fit that separates photobleaching
[4] = target: H3K9 methylated (H3K9me) histones in chromatin (S. pombe (endogenous in S. pombe cells)); assay: live-cell single-molecule tracking (NOBIAS mobility states, Bayesian Synthetic Likelihood rate inference); PAmCherry-tagged protein photoactivated and tracked in the nucleus of living S. pombe, 40-ms frames, room temperature; Chp2 from the nmt81 promoter, Epe1 from its own or the nmt1 promoter; WT cells, with clr4Δ and swi6Δ cells as comparison
[5] = target: H3K9 methylated (H3K9me) histones in chromatin (S. pombe (endogenous in S. pombe cells)); assay: live-cell single-molecule time-lapse imaging; residence times of stationary PAmCherry-tagged molecules in living WT S. pombe; 200-ms integration time with different dark delay times; kdiss from a linear fit that separates photobleaching; remark: listed apart in the source

PAmCherry-Chp2, sequence (O42934 whole entry): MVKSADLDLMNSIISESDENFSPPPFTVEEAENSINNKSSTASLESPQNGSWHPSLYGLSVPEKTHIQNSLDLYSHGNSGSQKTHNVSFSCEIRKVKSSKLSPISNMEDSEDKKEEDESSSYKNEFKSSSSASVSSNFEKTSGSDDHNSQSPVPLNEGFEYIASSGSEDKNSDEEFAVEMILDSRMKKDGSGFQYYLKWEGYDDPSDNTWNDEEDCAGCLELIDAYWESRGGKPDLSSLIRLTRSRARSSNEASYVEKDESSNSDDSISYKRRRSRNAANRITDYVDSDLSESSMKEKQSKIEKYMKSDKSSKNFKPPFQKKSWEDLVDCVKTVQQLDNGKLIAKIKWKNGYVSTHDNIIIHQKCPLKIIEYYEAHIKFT
PAmCherry-Swi6, sequence (P40381 whole entry): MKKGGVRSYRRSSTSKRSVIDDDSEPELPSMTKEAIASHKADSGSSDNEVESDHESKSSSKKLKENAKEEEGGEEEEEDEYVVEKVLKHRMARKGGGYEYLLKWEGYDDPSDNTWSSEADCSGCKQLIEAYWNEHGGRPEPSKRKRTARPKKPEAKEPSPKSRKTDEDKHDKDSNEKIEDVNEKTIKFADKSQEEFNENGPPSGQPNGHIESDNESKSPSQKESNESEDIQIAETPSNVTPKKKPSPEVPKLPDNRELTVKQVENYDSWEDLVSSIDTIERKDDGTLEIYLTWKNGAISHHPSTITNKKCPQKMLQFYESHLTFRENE
Chp2-WT (recombinant), sequence (O42934 whole entry): as the sequence (O42934 whole entry) above

Substance | average dwell time [3] [s] | koff [3] [s⁻¹] | weight fraction of the low mobility (H3K9me-bound) state [4] [%] | other results
Chp2-WT (recombinant) (from UniProt O42934 1-380) (natural protein) | – | – | – | specificity for H3K9me over H3K9me0 nucleosomes (H3K9me3 mononucleosome): 2 fold
PAmCherry-Chp2 (from UniProt O42934 1-380) (natural protein) | 3.85 | 0.26 | > 92 | average dwell time [1]: 3.72 s; koff [1]: 0.269 s⁻¹; weight fraction of the low mobility (H3K9me-bound) state [2]: > 90%; koff [4]: 0.479 s⁻¹
PAmCherry-Chp2 W199A (from UniProt O42934 1-380) (natural protein) | – | – | 10 | –
PAmCherry-Swi6 (from UniProt P40381 1-328) (natural protein) | 2.2 | 0.454 | – | average dwell time [5]: 2.22 s
